Measured values published in US6548066B1, “Immunogenic compositions to the CCK-B/gastrin receptor and methods for the treatment of tumors” (Aphton Corporation, priority 1997, dated 2003).

Legend:
MC26 mouse colon tumor = details: treated animals; 25 days in the control animals; cited from earlier work
[1] = target: T1, CCK-B/gastrin-receptor on AR42J cells (Rattus norvegicus, UniProt P30553); experiment: Radioligand (125I-hG17) binding inhibition on AR42J cells
T1 construct: host or cells: AR42J rat pancreatic adenocarcinoma cells
T1 sequence (P30553 1-452): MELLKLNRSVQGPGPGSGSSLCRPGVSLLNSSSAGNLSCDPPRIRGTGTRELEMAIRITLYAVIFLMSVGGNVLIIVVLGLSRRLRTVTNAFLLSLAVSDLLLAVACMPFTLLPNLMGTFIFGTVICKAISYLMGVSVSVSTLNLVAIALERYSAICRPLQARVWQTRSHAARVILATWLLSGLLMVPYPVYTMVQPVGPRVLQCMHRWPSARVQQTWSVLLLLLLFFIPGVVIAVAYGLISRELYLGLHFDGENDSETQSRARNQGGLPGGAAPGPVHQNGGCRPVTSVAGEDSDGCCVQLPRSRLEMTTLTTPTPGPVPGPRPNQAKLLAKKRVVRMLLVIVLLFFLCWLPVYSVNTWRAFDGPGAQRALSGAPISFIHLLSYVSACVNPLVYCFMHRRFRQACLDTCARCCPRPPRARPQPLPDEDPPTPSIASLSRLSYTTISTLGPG
Procedure: AR42J tumor cells (European Collection of Animal Cell cultures, Porton Down, UK) are derived from a rat pancreatic adenocarcinoma and are known to have well characterized CCK-B/gastrin-receptors. Thus AR42J were tested to confirm the expression of CCK-B/gastrin-receptor and specificity of the receptor for hH17 by radioligand inhibition. AR42J cells were cultured at 37° C. with 7% CO2 in complete RPMI 1640 (Sigma) supplemented with 10% FCS (Gemini Bioproducts), 2 mM glutamine (JRH Biosciences), 1 mM sodium pyruvate (JRH B.) and 50 μg/ml gentamicin (Gemini Bioproducts). The cells were harvested from 175 cm^2 T-flasks (Falcon Plastics) with PBS containing 0.25% EDTA, then washed twice with PBS (no EDTA) by centrifugation (400×g for 10 min). The cells were kept at 0-4° C. for all manipulations. A single cell suspension was prepared in buffer, and the cell concentration was adjusted to 10^6 cells/ml. Aliquots of 1 ml of cell suspension were added to 12×75 mm culture tubes, then the cells were centrifuged and the supernatants discarded. The cells were resuspended in PBS (0.1 ml/tube) containing human G17 (hG17), gonadotropin releasing hormone (GnRH), or no peptide. The peptide concentrations were 1.0 ng/ml, 100 ng/ml and 10 μg/ml. An aliquot of 0.1 ml of ^125I-hG17 (NEN), containing approximately 26,300 CPM (specific activity, 2200 Ci/mmol), was added to each tube. The tubes were vortexed, then incubated for 15 minutes. The cells were washed twice with PBS, then counted in a γ counter (Wallac). Samples were run in duplicate. Background counts were subtracted, then the % inhibition of ^125I-hG17 binding by each inhibitor was calculated using the equation: % Inhibition=(100)(1−((CPMuninhibited−CPMinhibited)/CPMuninhibited).

[2] = target: T2, gastrin-receptor expressed by AR42J cells (Rattus norvegicus, UniProt P30553); experiment: Immunofluorescence binding of antibodies to AR42J cells; details: peptide inhibitor 1.0 mg/ml; antibody 100 μg/ml
T2 construct: host or cells: AR42J rat pancreatic adenocarcinoma cells
T2 sequence (P30553 1-452): T1 sequence (P30553 1-452)
Procedure: Binding of the GRP1-Ser specific antibodies to AR42J cells was assessed by immunofluorescence. AR42J cells were grown as in the previous Examples and harvested with cell scrapers from 175 cm^2 T-flasks and washed twice with buffer (PBS with 0.02% NaN3) by centrinugation (400×g for 7 min). The cells were kept at 0-4° C. for all manipulations. A single cell suspension was prepared in buffer, and the cell concentration was adjusted to 10^6 cells/ml. The cell suspension was added to 1.5 ml microfuge tubes (1 ml/tube). The cells were pelleted by centrifugation and supernatants were aspirated. The cells were resuspended in buffer (0.1 ml/tube) containing peptide inhibitors (1.0 mg/ml). The inhibitors included GRP1-Ser, GnRH, hG17(9)-Ser and buffer (no inhibitor). Antibodies, including the rabbit anti-GRP1-Ser (100 μg/ml), affinity purified rabbit anti-DT (negative control, 100 μg/ml), mouse anti-AR42J antiserum (positive control, 1:100 dilution, heat inactivated) or normal mouse serum were added to the appropriate tubes and the contents were mixed. The cells were incubated for 1 hour, with occasional mixing. […] Fluorescence was scored on a scale of 0 to 4, with 0 representing background fluorescence (obtained with the normal mouse serum) and 4 representing maximal fluorescence (obtained with the mouse anti-AR42J positive control antiserum).

[3] = test system: affinity purified anti-GRP1 Ab binding to GRP1-Ser-BSA; experiment: Inhibition ELISA, specificity of affinity purified anti-GRP1 antibodies; set-up: species or system rabbit; details: anti-GRP1 Ab 10 ng/ml; inhibitor 1:10 dilution series
Procedure: The following experiments were performed to establish the specificity of antibodies raised in rabbits against the GRP1-DT peptide containing Ser spacer described Example 1 using Method B. A series of tests were conducted to assess the specificity of rabbit antibodies induced by immunization with the GRP1-DT and affinity purified by immunoadsorption over a GRP1-Ser Sepharose column.
An inhibition ELISA was used to assess the specificity of the affinity purified antibodies for GRP1-Ser peptide. The assays were run as follows: GRP1-Ser-BSA conjugate was coated onto 96 well plates (Immulon U bottom) by overnight incubation of 50 μl of a 2 μg/ml solution of conjugate in glycine buffer (0.1M, pH=9.5) at 4° C. Affinity purified anti-GRP1 Ab (at a final concentration of 10 ng/ml) was combined with various inhibitors (in 1:10 dilution series) and incubated for 1 hour at room temperature. The inhibitors included GRP1-Ser, GRP1 EPT, Ser, human gastrin 17(1-9)-Ser spacer (hG17(9)-Ser), GRP1 EPT+Ser, and buffer (no inhibitor). Incubation buffer consisted of PBS+0.5% BSA+0.05% Tween 20+0.02% NaN3. Subsequent steps used the same buffer without BSA. The 96 well plates were washed free of nonbound GRP1-Ser-BSA, and the Ab+inhibitor mixtures were added (50 μl/well). After 1 hour, the plates were washed and a goat anti-rabbit Ig (H+L) alkaline phosphatase conjugate (Zymed) was added (1:2000 dilution). […] Following a 60 minute incubation, absorbance was measured on a MRX reader (Dynatech Laboratories). Samples were run in duplicate, and means were calculated for each concentration. Background binding (established with affinity purified rabbit anti-GnRH antibodies) was subtracted from all values, and the % Inhibition relative to no inhibitor added (anti-GRP1 Ab+buffer) was calculated for each inhibitor tested: % Inhibition=(100)(1−((Auninhibited−Ainhibited)/Auninhibited), where A=Absorbance. The results are shown in FIG. 4.

Row | Compound | inhibition of anti-GRP1-Ser antibody binding to AR42J cells [2] | inhibition of antibody binding to GRP1-Ser-BSA [3] | other results
1 | CCCN(CCC)C(=O)C(CCC(=O)O)NC(=O)c1ccccc1 (stereo not drawn) [proglumide] | – | – | survival of xenograft mice bearing MC26 (MC26 mouse colon tumor): 39 days
2 | GnRH: gonadotropin releasing hormone | failed to inhibit | – | inhibition of 125I-hG17 binding to AR42J cells ([1]; 100 pg, considered to be nonspecific): 6%; inhibition of 125I-hG17 binding to AR42J cells ([1]; two highest concentrations tested): no inhibition
3 | KLNRSVQGTGPGPGASL [GRP1 EPT] | – | Approximately 60% | –
4 | SSPPPPC [Ser spacer] | – | No inhibition | –
5 | hG17(9)-Ser: amino-terminal nine residues of hG17 followed by the Ser spacer (QGPWLEEEESSPPPPPC) | failed to inhibit | No inhibition | –
6 | hG17: human G17, heptadecagastrin | – | – | inhibition of 125I-hG17 binding to AR42J cells ([1]; 1 μg per tube, highest concentration tested): 32%
